Laboratory results published in patent publication US20040138156A1, “Therapeutic regulation of deoxyribonuclease-1-like-3 activity” (priority 2002, published 2004).
Entries after “also recorded” stand apart in the source; their conditions may differ.

B1: D1: Murine deoxyribonuclease 1, glycosylated, supplied as media conditioned by transfected HeLa cells (protein, UniProt P49183 23-284, looked up)
Deoxyribonuclease-1: LRIAAFNIRTFGETKMSNATLSVYFVKILSRYDIAVIQEVRDSHLVAVGKLLDELNRDKPDTYRYVVSEPLGRKSYKEQYLFVYRPDQVSILDSYQYDDGCEPCGNDTFSREPAIVKFFSPYTEVQEFAIVPLHAAPTEAVSEIDALYDVYLDVWQKWGLEDIMFMGDFNAGCSYVTSSQWSSIRLRTSPIFQWLIPDSADTTVTSTHCAYDRIVVAGALLQAAVVPNSAVPFDFQAEYGLSNQLAEAISDHYPVEVTLRKI
B2: D1L3: Deoxyribonuclease 1-like 3; murine wild-type (C57BL, 89T) enzyme supplied as media conditioned by transfected HeLa cells (protein)
chain: LRLCSFNVRSFGASKKENHEAMDIIVKIIKRCDLILLMEIKDSSNNICPMLMEKLNGNSRRSTTYNYVISSRLGRNTYKEQYAFVYKEKLVSVKTKYHYHDYQDGDTDVFSREPFVVWFHSPFTAVKDFVIVPLHTTPETSVKEIDELVDVYTDVRSQWKTENFIFMGDFNAGCSYVPKKAWQNIRLRTDPKFVWLIGDQEDTTVKKSTSCAYDRIVLCGQEIVNSVVPRSSGVFDFQKAYDLSEEEALDVSDHFPVEFKLQSSRAFTNNRKSVSLKKRKKGNRS

Legend:
D1L3 = conditions: cited from earlier work
free DNA = assay: Radial diffusion assay (RDA) of nuclease activity against free DNA in conditioned media; assay type: biochemical; conditions: for mean RDA activity of conditioned media: 24 hours, 37 degrees
Method: (§1) Transfection Reagents and Resistance Assays. Lipofection of respective pcDNA3.1-D1 or -D3 ([…] purified with Promega Wizard Plus DNA system) was performed independently into 1-2 million HeLa cells, which produce a low background of secreted nuclease activity, when grown in DMEM with 10% FCS (LifeTech) in 6 well culture plates (Becton-Dickinson). […] Media of the transfected cells were conditioned for 36-48 hours and served as source of the respective enzymes. Nuclease activity in conditioned supernatant was measured by RDAs, zymograms and by testing activity against supercoiled pBluescript (Stratagene).
Nuclease Assays. Nuclease activity against “naked” or free DNA in CM was quantified by densitometry of RDAs. For assays of media by murine cells, RDAs were performed using conditioned media, after 36 hour incubation of equal numbers of target cell population. Each conditioned media was sampled in triplicate. RDAs for all four mice were performed on a single dish. For RDAs, 2-5 ul of conditioned supernatant was dotted on 100 mm dishes containing 2% agarose, 250 ug/ml DNA, 0.001% EtBr, 0.5% filtered milk, 10 mM Ca^+2/MgCl2; and 12.5 ug/ml kanamycin. Multiple observations were generated for every sample obtained. After 24 hours of 37° incubation, plates are photographed under UV transillumination; and scanned photos were analyzed with NIH image. For RDAs, the activity was quantified as the product of mean density and area (traced on image) of zones of clearing. For observations of serum/urine, 2-5 ul of serum were dotted on agarose plates.
Zymograms are in-gel renaturation assays performed by SDS-PAGE through a gel impregnated with 200 µg/ml DNA and ethidium bromide, eluting away SDS with repeated washes in 25 mM Tris-HCl pH 7.5, then incubating for 12-16 hours at 37° C. in 25 mM Tris-HCl pH 7.5 with 10 mM Ca^+2/Mg^+2 buffer. Activity is measured as dark “bands” of DNA digestion (Rosenthal et al., (1977) Anal. Biochem. 80, 76-90) and quantified using scanned images using NIH Image. Photographed RDA results were scanned 600 dpi Tiff images, and activity was measured as pixel area times density of traced zones of clearing (n=3 for each zone). Student's T-test was used to compare paired results. Nuclease activity ratios were obtained by comparing intra-plate results.

HeLa cells = assay: BT assay: liposomal N1-eGFP transfection of HeLa cells in DNASE-conditioned media, GFP immunoblot; assay type: cell-based; conditions: for GFP fluorescence by fluorescent microscopy: 24 hours; for BT activity / GFP expression or transfection efficiency in cells exposed to undiluted conditioned media: FuGENE-6; for GFP transfection in ten-fold diluted conditioned media: ten-fold (five and ten fold) dilution of conditioned media
Method: In the main assay, an eukaryotic marker such as green fluorescent protein (GFP) expression plasmid complexed with a lipid reagent is transfected into HeLa cells incubated in control media, D1L3-conditioned media, or D1-conditioned media (FIG. 4). The assay is not limited to the use of GFP as a marker, but could use any of many expressed biomarkers encoded by nucleotides that can be assayed either immunochemistry, fluorescent detection, or enzymatic detectection, and these include but are not circumscribed to luciferase, chloramphenicol acetyl-transferase, antibiotic or chemical resistance genes, Beta-galactosidase, FLAG-, myc-hemaglutinnin-, or other epitope tagged molecules, as well as other markers of gene or nucleotide transduction. The endpoint of the assay is the detection of a synthesized protein, but could easily have been the detection of a transcribed gene product, since the assay ultimately measures the ability of D1L3 added the media/milieu overlaying the cells to block the ultimate association of an expressible plasmid with the transcriptional machinery.
as §1
To test for the ability of the nucleases to block transfection, the media in individual wells of naive HeLa cells were replaced with conditioned media, and cells transfected with […] of N1-eGFP plasmid (Clontech) using various transfection reagents (FIG. 11) and their respective protocols. GFP expression by immunoblot directly correlated with transfection efficiency in present experiments. Thus, transfection efficiency was compared by densitometric analysis of GFP immunoblots.
GFP expression was also examined by fluorescent microscopy using a FITC filter. For microscopy, cells were fixed for 5 minutes in 4% paraformaldehyde dissolved into 1% PBS.
Antibody Reagents and Immunoblotting. After 24-36 hours, cells transfected with N1-eGFP were lysed in SDS-buffer and immunoblotted for expression with anti-GFP at 1:5000 dilution (Clontech). To confirm nearly equal protein loading per lane, anti-β-actin monoclonal antibody at 1:7,000 dilution (Sigma) were prepared. For immunoblots, […] protein was eletrophoretically separated by 12% SDS-PAGE gel, followed by electrotransfer to Immobilon-P membranes (Millipore) for expression studies. Immunoblotting was performed using ECL detection (Amersham).
Transfection efficiency was compared, wherever possible, by pixel densitometry of the scanned images using Scion Image 4.02 software.

Ad5.CMV-GFP = assay: Adenoviral gene transduction of HeLa cells in conditioned media, GFP immunoblot; assay type: cell-based, adenovirus serotype 5; conditions: lysed at 72 hours
Method: FIG. 30. D3-media confers an in vitro barrier to adenoviral gene transduction (BT). This figure provides anti-GFP immunoblots at 1:5000 (Clontech) of Ad.V.GFP infected (MO 100:1) of 100,000 HeLa cells. Infection of HeLa cells with Ad5.CMV-GFP (a 1st generation (DE1/DE3) adenovirus serotype 5 expressing GFP under the control of CMV-IE promoter (Qbiogene)) was performed in the presence of D1, D3, D1+D3CT, or control conditioned media. Infected cells were lysed at 72 hours and tested for GFP expression (n=3 expts). […] Thus DNASE1L3 or DNASE enzymes linked to the D3CT diminish adenoviral gene transfer. […] Actin levels were generally equivalent in infected cells.

liposomal-bound plasmid = assay: Cell-free nuclease activity assay on free or FuGene-bound plasmid; assay type: biochemical; conditions: FuGene-bound plasmid, 37° C., 1 hour
Method: FIG. 16. […] Representative experiment (n=3) of exposure of […] free (−) or liposomal-bound (+FuGene) plasmid to control media with 10% fetal calf serum (lanes 1-2), D1 (lanes 3-4), D1L3 (lanes 5-6), D3DCT (lanes 7-8), and N196K-D3 (lanes 9-10).
Cell-Free Nuclease Activity Assay. Free plasmid DNA or plasmid complexed with lipofection reagent was incubated with conditioned at 37° C. for 1 hour. The incubation was terminated with […] EDTA, and DNA extracted using Promega Wizard DNA Purification System, eluted in […] water, and electrophoresed on a 1% agarose gel.

[1] = media conditioned by transfected HeLa cells

| Molecule | effect on D1L3 DNASE activity (D1L3) | mean RDA activity of conditioned media (free DNA; [1]) [Units] | GFP fluorescence by fluorescent microscopy (HeLa cells) | BT activity / GFP expression or transfection efficiency in cells exposed to undiluted conditioned media (HeLa cells; anti-GFP immunoblot) | GFP expression after Ad5.CMV-GFP infection / barrier to infection (Ad5.CMV-GFP) | state of liposome-bound plasmid after exposure to conditioned media (liposomal-bound plasmid) | also measured |
| --- | --- | --- | --- | --- | --- | --- | --- |
| [Zn+2] [zinc] | block D1L3 DNASE activity | – | – | – | – | – | – |
| O=C(O)CN(CCN(CC(=O)O)CC(=O)O)CC(=O)O [EDTA] | block D1L3 DNASE activity | – | – | – | – | – | – |
| B1 | – | 28.2 | abundant GFP | did not differ significantly from controls; also recorded: no significant decrease; also recorded: no effect | increased expression of GFP | all remaining plasmid migrated in a nicked or linearized conformation | RDA activity relative to D1L3 conditioned media (free DNA; densitometry of RDAs, n=24 assays): ~2.7 fold; RDA nuclease activity of conditioned media (in words) (free DNA; [1]): greater RDA activity than D3; mean ratio of GFP expression in exposed cells versus control (HeLa cells; n=20 assays, anti-GFP immunoblot): 0.8 ± 0.2 |
| B2 | – | 12.0 | absence of GFP fluorescence | No GFP expression; also recorded: effectively blocks transfection efficiency | afford a barrier to infection | mostly supercoiled plasmid is protected | BT effect of diluted conditioned media (HeLa cells; diluted 100 fold with control media or 10-fold with N196K conditioned media): complete BT effect; GFP transduction after pre-incubation in conditioned media (HeLa cells; naive cells incubated six hours, rinsed twice with PBS, transfected in control media): blocked; GFP transfection in ten-fold diluted conditioned media (HeLa cells): No GFP expression is clearly detectable; GFP transfection in ten-fold diluted conditioned media (HeLa cells; listed as 89T): nearly completely blocks GFP transduction; also recorded: no GFP transfection efficiency; GFP transfection in ten-fold diluted conditioned media (HeLa cells; listed as D3): No GFP expression is clearly detectable; BT activity / GFP expression or transfection efficiency in cells exposed to undiluted conditioned media (HeLa cells; anti-GFP immunoblot, listed as 89T): saturated BT activity; BT activity / GFP expression or transfection efficiency in cells exposed to undiluted conditioned media (HeLa cells; anti-GFP immunoblot, listed as D3): prevents GFP expression; also recorded: abolished; GFP expression after Ad5.CMV-GFP infection / barrier to infection (Ad5.CMV-GFP; listed as D3): prevents GFP expression; state of liposome-bound plasmid after exposure to conditioned media (liposomal-bound plasmid; listed as D1L3-CM): does not completely digest liposomal-bound DNA |
